Tests used:
[1] = target: Recombinant human Fc gamma receptor IIa, CD32a 131H (human) (UniProt P12318)
[2] = target: Recombinant human Fc gamma receptor IIIa, CD16a 158V (human) (UniProt P08637)
[3] = target: Recombinant human Fc gamma receptor IIb/c, CD32b/c (human) (UniProt P31994)
[4] = target: Recombinant human Fc gamma receptor IIIb, CD16b (human) (UniProt O75015)
[5] = target: Recombinant human Fc gamma receptor I, CD64 (human) (UniProt P12314)
[6] = target: Recombinant human Fc gamma receptor IIa, CD32a 131R (human) (UniProt P12318)
Recombinant human Fc gamma receptor IIa, CD32a 131R (human), sequence (P12318 36-218 H167R): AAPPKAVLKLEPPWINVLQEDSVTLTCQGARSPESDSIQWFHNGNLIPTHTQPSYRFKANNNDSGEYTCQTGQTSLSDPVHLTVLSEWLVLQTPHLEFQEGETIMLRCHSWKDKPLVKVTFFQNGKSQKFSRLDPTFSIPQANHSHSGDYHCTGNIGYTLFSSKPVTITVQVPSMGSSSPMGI

[7] = target: CD20 Lipoparticles (UniProt P11836)
CD20 Lipoparticles, sequence (P11836 whole entry): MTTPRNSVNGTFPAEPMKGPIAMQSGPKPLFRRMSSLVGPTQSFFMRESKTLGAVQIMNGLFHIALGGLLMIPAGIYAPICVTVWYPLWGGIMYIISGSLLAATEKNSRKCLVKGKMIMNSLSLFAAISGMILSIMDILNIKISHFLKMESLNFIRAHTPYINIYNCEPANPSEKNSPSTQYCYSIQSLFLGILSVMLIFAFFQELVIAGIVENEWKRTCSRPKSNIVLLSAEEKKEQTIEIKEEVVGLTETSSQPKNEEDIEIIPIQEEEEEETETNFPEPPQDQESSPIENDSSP

Recombinant human Fc gamma receptor I, CD64 (human), sequence (P12314 16-288 limits assumed): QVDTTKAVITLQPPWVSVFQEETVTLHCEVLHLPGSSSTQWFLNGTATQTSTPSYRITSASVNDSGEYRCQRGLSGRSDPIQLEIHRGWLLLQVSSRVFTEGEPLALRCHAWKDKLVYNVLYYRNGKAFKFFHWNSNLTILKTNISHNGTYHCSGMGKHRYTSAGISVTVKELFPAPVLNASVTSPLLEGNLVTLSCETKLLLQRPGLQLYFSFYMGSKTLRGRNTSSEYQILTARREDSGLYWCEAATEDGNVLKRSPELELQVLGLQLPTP
Recombinant human Fc gamma receptor IIb/c, CD32b/c (human), sequence (P31994 46-217): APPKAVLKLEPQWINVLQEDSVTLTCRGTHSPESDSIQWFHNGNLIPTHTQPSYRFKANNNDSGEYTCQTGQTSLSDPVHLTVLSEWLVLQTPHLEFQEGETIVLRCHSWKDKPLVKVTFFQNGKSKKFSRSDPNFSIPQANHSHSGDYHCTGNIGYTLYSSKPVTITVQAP
Recombinant human Fc gamma receptor IIa, CD32a 131H (human), sequence (P12318 36-218): as the sequence (P12318 36-218 H167R) above, with R132H counted along it
Recombinant human Fc gamma receptor IIIb, CD16b (human), sequence (O75015 17-200 limits assumed): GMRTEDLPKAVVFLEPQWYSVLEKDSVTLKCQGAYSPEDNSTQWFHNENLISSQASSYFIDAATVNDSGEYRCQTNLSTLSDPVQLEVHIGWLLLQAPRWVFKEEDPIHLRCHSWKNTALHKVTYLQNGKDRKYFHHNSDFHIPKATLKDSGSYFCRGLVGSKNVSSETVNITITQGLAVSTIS
Recombinant human Fc gamma receptor IIIa, CD16a 158V (human), sequence (P08637 17-208 F176V limits assumed): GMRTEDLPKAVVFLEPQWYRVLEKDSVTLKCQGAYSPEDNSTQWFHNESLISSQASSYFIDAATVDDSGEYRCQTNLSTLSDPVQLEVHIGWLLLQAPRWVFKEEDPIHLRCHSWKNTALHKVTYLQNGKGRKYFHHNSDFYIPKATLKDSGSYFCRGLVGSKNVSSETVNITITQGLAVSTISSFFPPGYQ

## Rituxan (antibody)
[1]
  Kd: 892 nM
[2]
  Kd: 715 nM
[3]
  Kd: 1520 nM
[4]
  Kd: 1530 nM
[5]
  Kd: 52.8 nM
[6]
  Kd: 1250 nM
[7]
  Kd: < 0.001 nM
